Source: US20250326865A1, “C-MET PROTEIN-BINDING PEPTIDE COMPLEX” (PeptiDream Inc., priority 2021, published 2025)
Read-outs that look alike come from different tables or passages of the source. Starred links: 1 amine or outer side, 2 acyl side, 3 side chain; linkers in the order of their positions; H or OH if unused. Positions of bridges follow the written chain, without caps; N, C: chain ends. Non-standard residues stand in square brackets, D forms with d. Residues, ends and D or L forms follow the SMILES beside them. Primed or numbered codes have the meaning given here. Chains are numbered I, II in the order given. No end group written: not given here. OCOPEG13OCO = 3,6,9,12,15,18,21,24,27,30,33-undecaoxapentatriacontane-1,35-diylbis(bicarbonate); CO(CH2CH2O)9CH2CH2CO = O=C(CCOCCOCCOCCOCCOCCOCCOCCOCCOCCC(=O)[*:2])[*:1]; NMeF = CN[C@@H](Cc1ccccc1)C(=O)O; Ahp(2) = CCCCC[C@H](N)C(=O)O; NMeC = CN[C@@H](CS)C(=O)O; Ahp′ = not defined here

B1: GFs_c-Met-00014336-PEG13 dimer (peptide SEQ ID NO: 34, GFs_c-Met-00014336p; linker SEQ ID NO: 37) (peptide)
peptide: {CH2CO}-[NMeF]TAVS[NMeF]DED[Ahp(2)]PRWS[NMeC]
chain: GK[OCOPEG13OCO]KG
modifications: thioether I:N-I:15 (inferred); also: homodimer: two cyclic peptides joined by linker G-K-OCOPEG13OCO-K-G, peptide C-terminus on linker

What was measured:
c-Met = target: T1, c-Met (Homo sapiens, UniProt P08581); assay: Phospho-c-Met AlphaLISA assay (c-Met agonist activity) in A431 cells; assay type: cell-based; details: 15 minutes of stimulation; for C-Met Agonist Activity (2 or 1): c-Met phosphorylation (Tyr1234/1235) in A431 cells, maximum signal induced by HGF = 100%; for EC50: concentration of peptide showing 50% activity of the signal induced by HGF, A431 cells, read-out: C-Met Agonist Activity (C50; nM)
T1 construct: endogenous in cells; host or cells: A431 (human)
Description: To evaluate the activation potency (c-Met agonist activity) of c-Met of the peptide complex of the present invention, the phosphorylation of c-Met was verified. Human A431 cells were cultured in DMEM high glucose, GlutaMAX (registered trademark) Supplement, pyruvate (Thermo Fisher Scientific), containing 10% FBS (Gibco). After cells were detached using Accutase (Innovative cell technologies), they were seeded into a 96-well plate at 10000 cells per well and cultured overnight. The next day, for starvation, the culture medium was changed to DMEM high glucose, GlutaMAX (registered trademark) Supplement, pyruvate (Thermo Fisher Scientific), containing 0.1% BSA (Sigma-Aldrich), and the cells were cultured overnight. Then, the peptide complex synthesized in Example 3 or Recombinant Human HGF Protein (R&D systems) as a control was added, and after 15 minutes of stimulation, cells were lysed in a Lysis Buffer provided in the AlphaLISA (registered trademark) SureFire (registered trademark) Ultra™ Phospho-c-Met (Tyr1234/1235) kit (PerkinElmer). The assay was performed according to the kit protocol, and a SpectraMax (registered trademark) Paradigm (registered trademark) multimode microplate reader (Molecular Devices, LLC.) was used for signal detection. […] In the same manner, the C50 value was calculated by GraphPad Prism as the concentration of peptide showing 50% activity of the signal induced by HGF. […] Further, for a complex (GFs_c-Met-00014336-PEG13 dimer; complex no. 49 in Table 4) of a peptide (SEQ ID NO: 34) and a linker (SEQ ID NO: 37), a graph of c-Met agonist activity is shown in FIG. 1.

human c-Met protein [1] = target: T2, human c-Met protein (human, UniProt P08581 25-1390); assay: cell-based or functional assay
human c-Met protein [2] = target: T2, human c-Met protein; assay: cell-based or functional assay; remark: listed apart in the source
human c-Met protein [3] = target: T2, human c-Met protein; assay: cell-based or functional assay; remark: listed apart in the source

T1 sequence (P08581 25-1390): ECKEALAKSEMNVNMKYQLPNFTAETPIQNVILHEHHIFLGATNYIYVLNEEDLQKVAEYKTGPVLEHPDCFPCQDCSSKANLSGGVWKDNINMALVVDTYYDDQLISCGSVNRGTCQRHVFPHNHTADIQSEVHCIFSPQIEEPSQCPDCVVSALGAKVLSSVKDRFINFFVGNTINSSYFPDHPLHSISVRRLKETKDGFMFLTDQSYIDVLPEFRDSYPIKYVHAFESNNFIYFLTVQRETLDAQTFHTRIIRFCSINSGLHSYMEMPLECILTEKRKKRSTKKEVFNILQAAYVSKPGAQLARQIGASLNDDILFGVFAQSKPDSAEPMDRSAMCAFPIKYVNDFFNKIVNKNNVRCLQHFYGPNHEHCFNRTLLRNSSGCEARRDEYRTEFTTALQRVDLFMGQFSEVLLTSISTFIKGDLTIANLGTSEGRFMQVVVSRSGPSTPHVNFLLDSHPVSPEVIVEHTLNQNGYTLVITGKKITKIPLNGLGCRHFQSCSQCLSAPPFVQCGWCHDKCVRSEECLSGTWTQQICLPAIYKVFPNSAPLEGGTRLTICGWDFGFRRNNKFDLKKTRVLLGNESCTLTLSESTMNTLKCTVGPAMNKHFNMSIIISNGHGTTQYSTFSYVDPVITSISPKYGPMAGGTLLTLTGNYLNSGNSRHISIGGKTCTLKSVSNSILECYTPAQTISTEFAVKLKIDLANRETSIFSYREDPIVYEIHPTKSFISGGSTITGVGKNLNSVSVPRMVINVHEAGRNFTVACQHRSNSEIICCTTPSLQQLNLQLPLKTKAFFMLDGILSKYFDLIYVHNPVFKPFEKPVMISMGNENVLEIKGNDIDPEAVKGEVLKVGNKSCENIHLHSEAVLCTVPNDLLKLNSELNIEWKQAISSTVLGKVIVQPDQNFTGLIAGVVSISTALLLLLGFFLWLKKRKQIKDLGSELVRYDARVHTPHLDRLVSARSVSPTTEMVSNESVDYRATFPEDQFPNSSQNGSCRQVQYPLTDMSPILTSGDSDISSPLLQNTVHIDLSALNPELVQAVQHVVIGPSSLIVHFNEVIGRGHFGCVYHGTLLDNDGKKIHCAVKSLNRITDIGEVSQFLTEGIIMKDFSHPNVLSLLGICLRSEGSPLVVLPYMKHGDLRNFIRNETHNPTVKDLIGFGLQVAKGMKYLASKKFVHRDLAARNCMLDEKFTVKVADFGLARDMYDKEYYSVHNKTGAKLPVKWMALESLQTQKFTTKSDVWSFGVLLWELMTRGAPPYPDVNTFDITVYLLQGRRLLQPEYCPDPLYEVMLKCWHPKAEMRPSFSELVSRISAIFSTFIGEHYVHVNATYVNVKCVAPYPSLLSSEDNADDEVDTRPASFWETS
T2 sequence (P08581 25-1390): as above

Row | Molecule | C-Met Agonist Activity (2 or 1) (c-Met) | EC50 (c-Met) [nM] | also measured
1 | 1 ({CH2CO}-[NMeF]VYVS[NMeF]DDD[Ahp′]PRWS[NMeC]; thioether N-15 (inferred); not fully specified; reading uncertain; also: conjugated moiety via linker) [Peptide 1] | 2 (those showing more than 50% activation were described as 2) | – | –
2 | 5 ([NMeF]WYVS[NMeF]DDD[Ahp′]PRWS[NMeC]; not fully specified; reading uncertain) [Peptide 5] | 2 (those showing more than 50% activation were described as 2) | – | –
3 | Recombinant Human HGF Protein (R&D systems) (from UniProt P14210 32-728) (ligand) | – | – | EC50, HUVEC cell proliferation (CellTiter-Glo) (human c-Met protein [1]): 0.37 nM; EC50, phospho-c-Met AlphaLISA, A431 cells (human c-Met protein [1]): 0.66 nM
4 | 6 ([NMeF]VDVS[NMeF]DDD[Ahp′]PRWS[NMeC]; not fully specified; reading uncertain) [Peptide 6] | 2 (those showing more than 50% activation were described as 2) | – | –
5 | 12 ({CH2CO}-[NMeF]VYVS[NMeF]DDD[Ahp′]PRWD[NMeC]; thioether N-15 (inferred); not fully specified; reading uncertain; also: conjugated moiety via linker) [Peptide 12] | 2 (those showing more than 50% activation were described as 2) | – | –
6 | CCCCC[C@@H]1NC(=O)[C@H](CC(=O)O)NC(=O)[C@H](CO)NC(=O)[C@H](CC(=O)O)NC(=O)[C@H](Cc2ccccc2)N(C)C(=O)[C@H](CO)NC(=O)[C@H](C(C)C)NC(=O)[C@H](C)NC(=O)[C@H]([C@@H](C)O)NC(=O)[C@H](Cc2ccccc2)N(C)C(=O)CSC[C@@H](C(=O)NCC(=O)N[C@@H](CCCCNC(=O)CCOCCOCCOCCOCCOCCOCCOCCOCCOCCC(=O)NCCCC[C@H](NC(=O)CNC(=O)[C@@H]2CSCC(=O)N(C)[C@@H](Cc3ccccc3)C(=O)N[C@@H]([C@@H](C)O)C(=O)N[C@@H](C)C(=O)N[C@@H](C(C)C)C(=O)N[C@@H](CO)C(=O)N(C)[C@@H](Cc3ccccc3)C(=O)N[C@@H](CC(=O)O)C(=O)N[C@@H](CO)C(=O)N[C@@H](CC(=O)O)C(=O)N[C@@H](CCCCC)C(=O)N3CCC[C@H]3C(=O)N[C@@H](CCCNC(=N)N)C(=O)N[C@@H](Cc3c[nH]c4ccccc34)C(=O)N[C@@H](C)C(=O)N2C)C(N)=O)C(N)=O)N(C)C(=O)[C@H](C)NC(=O)[C@H](Cc2c[nH]c3ccccc23)NC(=O)[C@H](CCCNC(=N)N)NC(=O)[C@@H]2CCCN2C1=O [Peptide 44] (I: {CH2CO}-[NMeF]TAVS[NMeF]DSD[Ahp(2)]PRWA[NMeC]GK-NH2 / II: {CH2CO}-[NMeF]TAVS[NMeF]DSD[Ahp(2)]PRWA[NMeC]GK-NH2; linker I:17-II:17 via CO(CH2CH2O)9CH2CH2CO (inferred); thioether I:N-I:15, II:N-II:15 (inferred)) | – | 0.33 | –
7 | CCCCC[C@@H]1NC(=O)[C@H](CC(=O)O)NC(=O)[C@@H]2CCCN2C(=O)[C@H](CC(=O)O)NC(=O)[C@H](Cc2ccccc2)N(C)C(=O)[C@H](CO)NC(=O)[C@H](C(C)C)NC(=O)[C@H](C)NC(=O)[C@H](CCC(=O)O)NC(=O)[C@H](Cc2ccccc2)N(C)C(=O)CSC[C@@H](C(=O)NCC(=O)N[C@@H](CCCCNC(=O)CCOCCOCCOCCOCCOCCOCCOCCOCCOCCC(=O)NCCCC[C@H](NC(=O)CNC(=O)[C@@H]2CSCC(=O)N(C)[C@@H](Cc3ccccc3)C(=O)N[C@@H](CCC(=O)O)C(=O)N[C@@H](C)C(=O)N[C@@H](C(C)C)C(=O)N[C@@H](CO)C(=O)N(C)[C@@H](Cc3ccccc3)C(=O)N[C@@H](CC(=O)O)C(=O)N3CCC[C@H]3C(=O)N[C@@H](CC(=O)O)C(=O)N[C@@H](CCCCC)C(=O)N3CCC[C@H]3C(=O)N[C@@H](CCCNC(=N)N)C(=O)N[C@@H](Cc3c[nH]c4ccccc34)C(=O)N[C@@H](CO)C(=O)N2C)C(N)=O)C(N)=O)N(C)C(=O)[C@H](CO)NC(=O)[C@H](Cc2c[nH]c3ccccc23)NC(=O)[C@H](CCCNC(=N)N)NC(=O)[C@@H]2CCCN2C1=O [Peptide 30] (I: {CH2CO}-[NMeF]EAVS[NMeF]DPD[Ahp(2)]PRWS[NMeC]GK-NH2 / II: {CH2CO}-[NMeF]EAVS[NMeF]DPD[Ahp(2)]PRWS[NMeC]GK-NH2; linker I:17-II:17 via CO(CH2CH2O)9CH2CH2CO (inferred); thioether I:N-I:15, II:N-II:15 (inferred)) | – | 0.81 | –
8 | 3 ({CH2CO}-FVYVS[NMeF]DDD[Ahp′]PRWS[NMeC]; thioether N-15 (inferred); not fully specified; reading uncertain; also: conjugated moiety via linker) [Peptide 3] | 1 (those showing less than 50% activation as 1) | – | –
9 | CCCCC[C@@H]1NC(=O)[C@H](CC(=O)O)NC(=O)[C@@H]2CCCN2C(=O)[C@H](CC(=O)O)NC(=O)[C@H](Cc2ccccc2)N(C)C(=O)[C@H](CO)NC(=O)[C@H](C(C)C)NC(=O)[C@H](C)NC(=O)[C@H]([C@@H](C)O)NC(=O)[C@H](Cc2ccccc2)N(C)C(=O)CSC[C@@H](C(=O)NCC(=O)N[C@@H](CCCCNC(=O)CCOCCOCCOCCOCCOCCOCCOCCOCCOCCC(=O)NCCCC[C@H](NC(=O)CNC(=O)[C@@H]2CSCC(=O)N(C)[C@@H](Cc3ccccc3)C(=O)N[C@@H]([C@@H](C)O)C(=O)N[C@@H](C)C(=O)N[C@@H](C(C)C)C(=O)N[C@@H](CO)C(=O)N(C)[C@@H](Cc3ccccc3)C(=O)N[C@@H](CC(=O)O)C(=O)N3CCC[C@H]3C(=O)N[C@@H](CC(=O)O)C(=O)N[C@@H](CCCCC)C(=O)N3CCC[C@H]3C(=O)N[C@@H](CCCNC(=N)N)C(=O)N[C@@H](Cc3c[nH]c4ccccc34)C(=O)N[C@@H](C)C(=O)N2C)C(N)=O)C(N)=O)N(C)C(=O)[C@H](C)NC(=O)[C@H](Cc2c[nH]c3ccccc23)NC(=O)[C@H](CCCNC(=N)N)NC(=O)[C@@H]2CCCN2C1=O [Peptide 46] (I: {CH2CO}-[NMeF]TAVS[NMeF]DPD[Ahp(2)]PRWA[NMeC]GK-NH2 / II: {CH2CO}-[NMeF]TAVS[NMeF]DPD[Ahp(2)]PRWA[NMeC]GK-NH2; linker I:17-II:17 via CO(CH2CH2O)9CH2CH2CO (inferred); thioether I:N-I:15, II:N-II:15 (inferred)) | – | 0.67 | –
10 | B1 | – | – | EC50, HUVEC cell proliferation (CellTiter-Glo) (human c-Met protein [2]): 0.55 nM; EC50, phospho-c-Met AlphaLISA, A431 cells (FIG. 1) (human c-Met protein [2]): 0.72 nM; C-Met Agonist Activity (C50; nM): phospho-c-Met AlphaLISA, A431 cells (human c-Met protein [3]): 0.67 nM
